Measurements: paper PMC5426849 (Molecular Biology of the Cell, 2017)
Non-standard residues stand in square brackets, D forms with d. No end group written: not given here. Flu = 5-carboxyfluorescein, coupled after removal of the final Fmoc group; pY = N[C@@H](Cc1ccc(OP(=O)(O)O)cc1)C(=O)O

T1: Vav2 SH2 domain, monomeric, cleaved from GST (human, UniProt P52735 673-767)
T1 sequence: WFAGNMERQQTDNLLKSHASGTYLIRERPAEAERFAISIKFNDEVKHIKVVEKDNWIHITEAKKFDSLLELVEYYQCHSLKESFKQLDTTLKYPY

T2: Nap4/SOCS7 SH2 domain, monomeric, cleaved from GST (human, UniProt O14512 400-509)
T2 sequence: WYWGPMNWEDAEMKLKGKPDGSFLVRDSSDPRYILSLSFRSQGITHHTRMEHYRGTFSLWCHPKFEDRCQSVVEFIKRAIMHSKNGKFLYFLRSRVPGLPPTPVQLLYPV

T3: purified recombinant full-length Vav2 (human, UniProt P52735 1-878)
T3 sequence: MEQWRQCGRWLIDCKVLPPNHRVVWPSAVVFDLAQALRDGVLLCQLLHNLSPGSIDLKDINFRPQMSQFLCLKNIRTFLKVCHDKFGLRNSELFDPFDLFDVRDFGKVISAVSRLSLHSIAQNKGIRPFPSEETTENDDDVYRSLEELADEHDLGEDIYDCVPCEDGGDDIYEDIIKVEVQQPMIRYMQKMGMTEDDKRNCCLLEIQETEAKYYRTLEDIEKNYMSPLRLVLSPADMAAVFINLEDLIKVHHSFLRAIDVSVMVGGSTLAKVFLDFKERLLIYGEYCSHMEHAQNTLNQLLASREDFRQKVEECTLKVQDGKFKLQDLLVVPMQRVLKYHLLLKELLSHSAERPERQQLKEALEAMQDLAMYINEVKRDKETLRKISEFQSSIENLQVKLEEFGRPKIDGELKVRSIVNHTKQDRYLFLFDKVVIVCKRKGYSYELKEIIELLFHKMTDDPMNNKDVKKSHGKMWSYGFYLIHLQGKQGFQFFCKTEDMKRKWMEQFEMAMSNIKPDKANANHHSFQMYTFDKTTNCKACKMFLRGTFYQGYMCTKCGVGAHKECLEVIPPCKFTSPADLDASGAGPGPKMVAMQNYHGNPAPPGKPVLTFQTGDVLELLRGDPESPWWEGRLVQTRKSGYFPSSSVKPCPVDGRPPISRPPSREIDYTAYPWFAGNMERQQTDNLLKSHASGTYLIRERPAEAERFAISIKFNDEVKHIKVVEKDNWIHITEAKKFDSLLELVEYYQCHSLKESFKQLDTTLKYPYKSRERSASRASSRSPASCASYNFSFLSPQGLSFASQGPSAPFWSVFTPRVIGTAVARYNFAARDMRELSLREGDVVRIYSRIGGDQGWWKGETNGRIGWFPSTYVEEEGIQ

B1: fluoresceinated cortactin phospho-Y421 peptide (peptide)
peptide: Flu-SSPI[pY]EDAA
B2: phosphorylated cortactin (natural protein)
chain: not shown
modifications: phosphotyrosine (confirmed by anti-phosphotyrosine Western blot; sites of this preparation not stated)
B3: Arg SH2 domain, monomeric, cleaved from GST (domain or fragment)
chain: WYHGPVSRSAAEYLLSSLINGSFLVRESESSPGQLSISLRYEGRVYHYRINTTADGKVYVTAESRFSTLAELVHHHSTVADGLVTTLHYPA

Key:
[1] = molecular target: T1, Vav2 SH2 domain, monomeric, cleaved …; experiment: fluorescence polarisation
[2] = molecular target: Nck1 SH2 domain, monomeric, cleaved from GST (human, UniProt P16333 282-376); experiment: fluorescence polarisation
[3] = molecular target: Src SH2 domain, monomeric, cleaved from GST (human, UniProt P12931 151-248); experiment: fluorescence polarisation
[4] = molecular target: Brk SH2 domain, monomeric, cleaved from GST (human, UniProt Q13882 78-170); experiment: fluorescence polarisation
[5] = molecular target: T2, Nap4/SOCS7 SH2 domain, monomeric, …; experiment: fluorescence polarisation
[6] = molecular target: B3; experiment: fluorescence polarisation
[7] = molecular target: Fyn SH2 domain, monomeric, cleaved from GST (human, UniProt P06241 149-246); experiment: fluorescence polarisation
[8] = molecular target: T3, purified recombinant full-length Vav2; experiment: pull-down
[9] = molecular target: B1; experiment: fluorescence polarisation

Flu-EDDT[pY]DGYE [fluoresceinated cortactin phospho-Y482 peptide] gave a Kd [1] of over 5 µM, a Kd [2] of over 5 µM and a Kd [3] of over 5 µM. For the same binder, the Kd [4] was over 5 µM, the Kd [5] was over 5 µM and the Kd [6] was over 5 µM. It also gave a Kd [7] of over 5 µM.

B1: binds [2]; binds [3]; binds [4]. B1: binds [5]; binds [7].

B2 showed a Kd [8] of 1.5 ± 0.3 µM.

With B3 the “fold greater affinity than for the phospho-Y466 peptide” value [9] was 2.5 fold.
